Measurements: patent publication US20210024646A1 (FUDAN UNIVERSITY, published 2021)
Where a chain is given by its changes, count along the chain named. Several values for one entry are separate records, joined by “and”; a condition that tells them apart may be missing. Equal values may be shown once.

T1: extracellular domain of human CD73 protein (CD73-ECD), C-terminus polyhistidine-tagged (human, UniProt P21589 27-547)
T1 sequence: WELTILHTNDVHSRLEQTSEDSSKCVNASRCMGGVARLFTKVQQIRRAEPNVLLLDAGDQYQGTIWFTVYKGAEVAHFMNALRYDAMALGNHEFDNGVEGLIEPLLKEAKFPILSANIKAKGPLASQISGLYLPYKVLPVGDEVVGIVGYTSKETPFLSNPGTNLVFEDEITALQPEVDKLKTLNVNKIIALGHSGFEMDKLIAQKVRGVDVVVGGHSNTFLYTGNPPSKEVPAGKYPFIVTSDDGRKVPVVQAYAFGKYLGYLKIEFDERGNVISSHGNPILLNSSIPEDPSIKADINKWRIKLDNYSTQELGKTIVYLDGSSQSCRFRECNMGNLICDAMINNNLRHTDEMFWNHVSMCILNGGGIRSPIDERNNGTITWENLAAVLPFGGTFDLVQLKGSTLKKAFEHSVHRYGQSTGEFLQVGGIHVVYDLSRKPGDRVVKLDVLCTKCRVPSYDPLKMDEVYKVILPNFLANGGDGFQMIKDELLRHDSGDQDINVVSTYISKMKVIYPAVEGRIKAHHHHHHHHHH

T2: CD73 on the surface of human tumor cells (human, UniProt P21589 27-549)
T2 construct: whole, on cells; One entry for endogenous CD73 on all cell lines; the cell line is named under assay or readout; also called CD73 receptors on the surface of tumor cells; tumor cell CD73
T2 sequence (looked up): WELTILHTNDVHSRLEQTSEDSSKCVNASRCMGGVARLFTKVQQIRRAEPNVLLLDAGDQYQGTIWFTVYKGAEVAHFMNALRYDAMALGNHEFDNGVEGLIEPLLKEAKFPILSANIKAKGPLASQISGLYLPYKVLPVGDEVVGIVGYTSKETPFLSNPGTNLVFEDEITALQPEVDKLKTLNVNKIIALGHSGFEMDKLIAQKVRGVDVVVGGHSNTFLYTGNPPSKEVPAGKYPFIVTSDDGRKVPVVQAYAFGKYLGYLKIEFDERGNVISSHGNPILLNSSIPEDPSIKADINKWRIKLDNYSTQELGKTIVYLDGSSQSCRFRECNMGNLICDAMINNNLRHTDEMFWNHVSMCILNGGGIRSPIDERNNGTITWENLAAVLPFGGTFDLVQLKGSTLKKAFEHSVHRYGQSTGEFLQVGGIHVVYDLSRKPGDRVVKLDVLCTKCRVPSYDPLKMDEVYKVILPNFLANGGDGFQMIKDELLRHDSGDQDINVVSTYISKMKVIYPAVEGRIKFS

B1: mAb001c-VK-SGS (antibody, V domains shown)
VH: QVQLQQSGPELVKPGASVRISCKTSGYTFTNYYIYWVKQRPGQGLEWIGWIYPGNLNIKYNEKFKGKSTLTADKSSSTAFMQLSSLTSEDSAVYFCARDDNYAWFAYWGQGTLVTVSS
VL: DIVMTQSHKFMSTSIGDRVSITCKASQDVSTAVAWYQQKPGQSPKLLIYWTNTRHTGVPDRFTGSGSGTEHTLTISSVQAEDLALYYCQQHYSTPFTFGSGTTLEIK
B2: Hu002c-7 (antibody, V domains shown)
VH: QVQLVQSGAEVKKPGASVKVSCKASGYTLTSYWMHWVRQAPGQGLEWIGEINPSQGRSNYNEKFKSRVTLTVDRSTSTVYMELSSLRSEDTAVYYCARRGVSGNYFDYWGQGTLVTVSS
VL: DIQMTQSPSSLSASVGDRVTITCKASQDINTYLSWFQQKPGKSPKSLIYRSNILVSGVPSRFSGSGSGQDYTLTISSLQPEDFATYYCLQYDEFPYTFGGGTKLEIK
notes: Humanized
B3: Hu002c-8 (antibody, V domains shown)
VH: B2 VH
VL: DIQMTQSPSSLSASVGDRVTITCKASQDINTYLSWFQQKPGKSPKSLIYRSNILVSGVPSRFSGSGSGQDYTLTISSLQPEDFAIYYCLQYDEFPYTFGGGTKLEI
notes: Humanized
B4: Hu002c-10 (antibody, V domains shown)
VH: B2 VH with R67K
VL: B2 VL with S43A, G100Q
notes: Humanized
B5: Hu002c-15 (antibody, V domains shown)
VH: B2 VH with R38K, Q39K, R67K
VL: B2 VL
notes: Humanized
B6: Hu002c-14 (antibody, V domains shown)
VH: B2 VH with R38K, Q39K, R67K
VL: B2 VL with S43A, G100Q
notes: Humanized
B7: Hu002c-4 (antibody, V domains shown)
VH: B2 VH with I48M, L70M, V72R, R74T
VL: B3 VL
notes: Humanized
B8: Hu002c-12 (antibody, V domains shown)
VH: B2 VH with R67K
VL: B3 VL
notes: Humanized
B9: Hu002c-16 (antibody, V domains shown)
VH: B2 VH with R38K, Q39K, R67K
VL: B3 VL
notes: Humanized
B10: Hu002c-11 (antibody, V domains shown)
VH: B2 VH with R67K
VL: B2 VL
notes: Humanized
B11: Hu001c-22 (antibody, V domains shown)
VH: QVQLVQSGAEVKKPGASVKVSCKASGYTFTNYYIYWVKQRPGQRLEWIGWIYPGNLNIKYNEKFKGRVTITADKSASTAYMELSSLRSEDTAVYYCARDDNYAWFAYWGQGTLVTVSS
VL: DIQMTQSPSSLSASVGDRVTITCKASQDVSTAVAWYQQKPGKAPKLLIYWTNTRHTGVPSRFSGSGSGTDHTLTISSLQPEDFATYYCQQHYSTPFTFGQGTKLEIK
notes: Humanized
B12: Hu001c-25 (antibody, V domains shown)
VH: B11 VH with K38R, R40A
VL: B11 VL with A43S
notes: Humanized
B13: Hu001c-24 (antibody, V domains shown)
VH: B11 VH with A24T, R44G
VL: B11 VL
notes: Humanized
B14: Hu001c-23 (antibody, V domains shown)
VH: B11 VH with R44G
VL: B11 VL
notes: Humanized
B15: MEDI9447-κ (antibody, V domains shown)
VH: EVQLLESGGGLVQPGGSLRLSCAASGFTFSSYAYSWVRQAPGKGLEWVSAISGSGGRTYYADSVKGRFTISRDNSKNTLYLQMNSLRAEDTAVYYCARLGYGRVDEWGRGTLVTVSS
VL: QSVLTQPPSASGTPGQRVTISCSGSLSNIGRNPVNWYQQLPGTAPKLLIYLDNLRLSGVPDRFSGSKSGTSASLAISGLQSEDEADYYCATWDDSHPGWTFGGGTKLTVL
B16: mAb002c-VH-QG/VK-SG (antibody, V domains shown)
VH: QVQLQQPGAELVKPGASVRLSCKASGYTLTSYWMHWVKKRPGQGLEWIGEINPSQGRSNYNEKFKSKATLTVDRSSSTVYMQLGSLTSEDSAVYYCARRGVSGNYFDYWGQGTTLTVSS
VL: DIKMTQSPSSMYASLGERVTMTCKASQDINTYLSWFQQKPGKSPKTLIYRSNILVSGVPSRFSGSRSGQDYYLTITSLEYEDMGIYYCLQYDEFPYTFGGGTKLELK
B17: mAb002c-VH-NA (antibody, V domains shown)
VH: B16 VH with Q55N, G56A
VL: B16 VL with S56D
B18: mAb002c-VK-SG (antibody, V domains shown)
VH: B16 VH with Q55N
VL: B16 VL
B19: mAb002c-VH-QG (antibody, V domains shown)
VH: B16 VH
VL: B16 VL with S56D

Columns and labels:
[1] = target: T1, extracellular domain of human CD73 …; assay: cell-based or functional assay
[2] = target: T2, CD73 on the surface of human tumor cells; assay: flow cytometry, MDA-MB-231 cells
[3] = target: T2, CD73 on the surface of human tumor cells; assay: flow cytometry, NCI-H1299 cells
[4] = target: T1, extracellular domain of human CD73 …; assay: ELISA, coated CD73-ECD
[5] = target: T2, CD73 on the surface of human tumor cells; assay: FACS, NCI-H1299 cells
Protocol: Alternatively, 100 μL of mAb001c, mAb002c, mAb004c diluted in a 3-fold gradient from 100 nM to 0.046 nM were used as primary antibodies and mixed with 1×10⁵ NCI-H1299 cells suspended in 100 μL RPMI-1640 serum-free medium. Then the obtained solutions were incubated at 4° C. for 1 h, the cells were washed twice with PBS to remove unbound primary antibody, and the target cells were incubated with 200 μL PE-labeled secondary antibody (2 μg/mL) at 4° C. for 30 min. The cells were washed twice with PBS to remove unbound secondary antibody. Finally, the cells were resuspended in 200 μL PBS, and the binding affinities of the test antibodies to CD73 on the cell surface were determined by a flow cytometer.
With reference to the methods in Examples 4-8, the ELISA affinity to CD73-ECD protein, the inhibitory activity on recombinant human CD73 enzyme, the binding affinity to tumor cells, and the inhibitory activity on CD73 enzyme of tumor cells of the above prepared MEDI9447-κ as well as the antibodies mAb001c and mAb002c were detected.

[6] = target: T2, CD73 on the surface of human tumor cells; assay: cell-based or functional assay
[7] = target: T2, CD73 on the surface of human tumor cells; assay: FACS, MDA-MB-231 cells

| Binder | binding result [3] | binding result [4] | further results |
| --- | --- | --- | --- |
| B1 | – | – | IC50, inhibition of the catalytic function of recombinant human CD73 (CellTiter-Glo) [1]: 0.02 nM; EC50 [2]: 1.39 nM |
| B2 | binds | binds | – |
| B3 | binds | binds | – |
| B4 | binds | binds | – |
| B5 | binds | binds | – |
| B6 | binds | binds | – |
| B7 | binds | binds | – |
| B8 | binds | binds | – |
| B9 | binds | binds | – |
| B10 | binds | binds | – |
| B11 | – | binds | binding result [2]: binds |
| B12 | – | binds | binding result [2]: binds |
| B13 | – | binds | binding result [2]: binds |
| B14 | – | binds | binding result [2]: binds |
| B15 | – | – | EC50 [5]: 1.27 nM; Calu-1 CD73 Enzyme Inhibition IC50 [6]: 0.527 nM; MDA-MB-231 CD73 Enzyme Inhibition IC50 [6]: 1.1 nM; NCI-H1299 CD73 Enzyme Inhibition IC50 [6]: 0.388 nM; EC50 [7]: 0.752 nM |
| B16 | – | – | IC50, inhibition of the catalytic function of recombinant human CD73 (CellTiter-Glo) [1]: 0.038 nM and 0.06 nM |
| B17 | – | – | EC50 [2]: 0.43 nM |
| B18 | – | – | EC50 [2]: 0.46 nM |
| B19 | – | – | EC50 [2]: 0.43 nM |
